Measured values from patent publication EP4806514A2 (Lepu Biopharma Co., Ltd., dated 2025).
Changes are numbered by the printed parent chain.

Experiments:
[1] = target: T1, human CDH17, full length, expressed on cells (HEK293-hCDH17); AsPC-1, HCT-8, AGS, LoVo, KATO III, HT-29 tumor … (human, UniProt Q12864 23-832); experiment: flow cytometry, HCT-8 cells
T1 construct: also called human CDH17 expressed on tumor cells
T1 sequence: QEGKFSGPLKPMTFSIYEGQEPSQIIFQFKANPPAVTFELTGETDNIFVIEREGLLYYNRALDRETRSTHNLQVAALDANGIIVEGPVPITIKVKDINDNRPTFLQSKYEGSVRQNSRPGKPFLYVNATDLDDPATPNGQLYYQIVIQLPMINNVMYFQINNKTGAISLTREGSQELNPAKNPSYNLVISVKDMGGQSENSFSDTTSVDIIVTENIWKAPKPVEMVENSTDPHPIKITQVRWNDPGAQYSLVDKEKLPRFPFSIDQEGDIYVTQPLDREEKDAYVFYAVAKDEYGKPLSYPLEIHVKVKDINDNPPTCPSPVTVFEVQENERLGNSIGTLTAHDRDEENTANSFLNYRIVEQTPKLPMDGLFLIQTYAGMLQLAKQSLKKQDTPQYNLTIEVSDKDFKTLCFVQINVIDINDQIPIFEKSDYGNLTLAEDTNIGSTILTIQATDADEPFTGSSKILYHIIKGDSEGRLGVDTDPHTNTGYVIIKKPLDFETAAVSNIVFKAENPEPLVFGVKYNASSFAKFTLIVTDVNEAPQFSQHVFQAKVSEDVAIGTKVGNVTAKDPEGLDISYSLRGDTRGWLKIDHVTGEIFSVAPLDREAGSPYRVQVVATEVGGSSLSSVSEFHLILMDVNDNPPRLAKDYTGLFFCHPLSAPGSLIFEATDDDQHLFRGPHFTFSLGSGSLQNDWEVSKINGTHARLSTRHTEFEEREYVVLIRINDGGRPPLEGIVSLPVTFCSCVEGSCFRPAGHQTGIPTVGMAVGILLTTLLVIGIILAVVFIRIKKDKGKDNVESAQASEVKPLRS

[2] = target: T2, hCDH17-his (full length extracellular domain of human CDH17, Q23-M787, his tag at the C-terminal) (human, UniProt Q12864 23-787); experiment: SPR (Biacore 8K), two doses, antibody captured on Protein A chip, hCDH17-his at 25 nM and 100 nM
T2 construct: Limits of the construct (UniProt Q12864, Q23-M787, C-terminal his tag); also called human CDH17-his protein; human CDH17 protein
T2 sequence: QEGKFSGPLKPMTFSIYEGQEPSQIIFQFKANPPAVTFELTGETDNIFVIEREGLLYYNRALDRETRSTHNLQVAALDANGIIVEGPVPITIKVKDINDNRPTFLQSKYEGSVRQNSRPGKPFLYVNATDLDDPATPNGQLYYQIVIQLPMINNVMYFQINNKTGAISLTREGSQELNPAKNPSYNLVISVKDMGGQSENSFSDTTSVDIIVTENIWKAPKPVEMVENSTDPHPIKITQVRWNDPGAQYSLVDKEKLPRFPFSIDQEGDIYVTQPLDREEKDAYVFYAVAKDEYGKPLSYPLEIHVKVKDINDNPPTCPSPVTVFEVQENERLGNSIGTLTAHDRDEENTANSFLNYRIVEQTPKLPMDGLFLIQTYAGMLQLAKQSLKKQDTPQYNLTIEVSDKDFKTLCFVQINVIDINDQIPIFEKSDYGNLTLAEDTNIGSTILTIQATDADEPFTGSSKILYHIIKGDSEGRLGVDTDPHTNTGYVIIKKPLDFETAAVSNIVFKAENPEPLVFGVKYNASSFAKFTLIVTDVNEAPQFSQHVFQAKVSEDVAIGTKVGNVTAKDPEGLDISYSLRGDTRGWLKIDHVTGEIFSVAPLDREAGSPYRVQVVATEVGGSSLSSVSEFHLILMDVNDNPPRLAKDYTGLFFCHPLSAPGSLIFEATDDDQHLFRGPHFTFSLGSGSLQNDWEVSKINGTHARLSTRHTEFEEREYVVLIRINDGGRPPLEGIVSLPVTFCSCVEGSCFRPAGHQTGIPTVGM

[3] = target: T1, human CDH17, full length, expressed on …; experiment: flow cytometry, LoVo, HCT-8 and AsPC1 cells
[4] = target: T2, hCDH17-his (full length extracellular …); experiment: SPR (Biacore 8K), antibody captured on Protein A chip, hCDH17-his injected

B1: 29H8D3-z12p3 (antibody, V domains shown)
VH: QVQLVQSGAEVKKPGASVKVSCKASGYTFTDHTIHWMRQRPGQGLEWIGYIYPRDGYTKYNEKFKDRATLTADTSTSTAYMELRSLRSDDTAVYYCARFYYGYWYFDVWGQGTTVTVSS
VL: DIVMTQSPLSLPVTPGEPASISCRSSKSLLRSNANTYLYWFLQKPGQSPQVLIYRMSNLASGVPDRFSGSGSGTDFTLKISRVEAEDVGVYYCMQHLEYPFTFGQGTKLEIK
notes: PTM-removed variant of 29H8D3-z12
[1]
  binding result: binds
[2]
  binding result: binds

B2: 29H8D3-z12p7 (antibody, V domains shown)
VH: B1 VH with D55E
VL: B1 VL with N35Q
notes: as for B1
[1]
  binding result: binds
[2]
  binding result: binds

B3: 29H8D3-z12p4 (antibody, V domains shown)
VH: B1 VH with D55E
VL: B1 VL
notes: as for B1
[1]
  binding result: binds
[2]
  binding result: binds

B4: 29H8D3-z12p22 (antibody, V domains shown)
VH: B1 VH
VL: B1 VL with A34G, M94L
notes: PTM-removed variant of 29H8D3-z12; VH is that of 29H8D3-z12
[1]
  binding result: binds
[2]
  binding result: binds

B5: 69E3H11-z12a19 (antibody, V domains shown)
VH: QVQLVQSGAEVKKPGASVKVSCKASGYTFTTYWMHWVKQAPGQRLEWIGEIDPSDSYANYNQKFKGKATLTVDKSASTAYMELSSLRSEDTAVYYCALYYGYGDWGQGTTVTVSS
VL: EIVLTQSPGTLSLSPGERATLSCSVSSSISKIHLHWYQQKPGQAPRLLIYRTSNLASGIPDRFSGSGSGTDFTLTISRLEPEDFAVYYCQQGSNLPLTFGQGTRLEIK
[3]
  binding result: binds
[2]
  binding result: binds

B6: 69E3H11-z12a26 (antibody, V domains shown)
VH: B5 VH
VL: B5 VL with K31S, S53R
[3]
  binding result: binds
[2]
  binding result: binds

B7: 69E3H11-z12a21 (antibody, V domains shown)
VH: B5 VH
VL: B5 VL with S27A, K31R
[3]
  binding result: binds
[2]
  binding result: binds

B8: 69E3H11-z12a20 (antibody, V domains shown)
VH: B5 VH
VL: B5 VL with K31R
[3]
  binding result: binds
[2]
  binding result: binds

B9: 29D2D7-z19p3 (antibody, V domains shown)
VH: QVQLVQSGAEVKKPGASVKVSCKASGYTFTDYDMHWVKQAPGQGLEWIGGFDPESAGTVYNLRFKDKATLTADKSTSTAYMELRSLRSEDTAVYYCARKGYYSVSSPFTYWGQGTLVTVSS
VL: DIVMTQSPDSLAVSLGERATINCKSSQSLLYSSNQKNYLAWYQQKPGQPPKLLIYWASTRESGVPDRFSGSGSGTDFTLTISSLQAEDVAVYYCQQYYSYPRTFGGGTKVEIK
notes: PTM-removed variant of 29D2D7-z19; VH is that of 29D2D7-z19
[1]
  binding result: binds
[2]
  binding result: binds

B10: 29D2D7-z19p5 (antibody, V domains shown)
VH: B9 VH
VL: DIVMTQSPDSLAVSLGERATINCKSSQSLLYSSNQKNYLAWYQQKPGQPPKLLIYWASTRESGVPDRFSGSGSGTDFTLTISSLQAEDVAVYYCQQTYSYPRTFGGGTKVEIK
notes: as for B9
[1]
  binding result: binds
[2]
  binding result: binds

B11: 143H10E4-z6 (antibody, V domains shown)
VH: QVQLVQSGAEVKKPGSSVKVSCKASGSTFTDHTIHWVRQAPGQGLEWIGYIYPVYGYTQNNEKFKGRATITADKSTSTAYMELSSLRSEDTAVYYCARSRDSNPYYFDYWGQGTTVTVSS
VL: EIVLTQSPDFQSVTPKEKVTITCTVSSSISSSNLHWYQQKPDQSPKPWIYGTSNLASGVPSRFSGSGSGTDYSLTINSLEAEDAATYYCQQWSSYPFTFGQGTKLEIK
notes: Humanized, human IgG1 constant region; also called 143H10E4 HU-VH1-1 / HU-VL1-3
[1]
  binding result: binds
[4]
  binding result: binds

B12: 143H10E4-z3 (antibody, V domains shown)
VH: B11 VH with I48M, A68V
VL: B11 VL
notes: Humanized, human IgG1 constant region; also called 143H10E4 HU-VH1-0 / HU-VL1-3
[1]
  binding result: binds
[4]
  binding result: binds

B13: 143H10E4-z9 (antibody, V domains shown)
VH: B11 VH with S84N
VL: B11 VL
notes: Humanized, human IgG1 constant region; also called 143H10E4 HU-VH1-2 / HU-VL1-3
[1]
  binding result: binds
[4]
  binding result: binds
